Data from patent US20250154283A1 (published 2025).

T1: His-StrepTagII-HRV3C-human VWF-CK-HA-tag (human)
T1 construct: it begins with the VWF signal peptide, whose limits were marked only by underlining that is lost in the text, so it was not cut off; The CK domain forms disulfide-linked homodimers (CK dimer); also called recombinant human CK domain; Human CK
T1 chain: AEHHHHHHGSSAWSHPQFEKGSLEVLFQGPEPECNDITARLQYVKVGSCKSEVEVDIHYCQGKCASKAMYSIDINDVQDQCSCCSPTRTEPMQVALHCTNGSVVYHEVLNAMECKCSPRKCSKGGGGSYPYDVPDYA

T2: His-StrepTagII-HRV3C-cyno VWF-CK-HA-tag (cynomolgus monkey)
T2 construct: it begins with the VWF signal peptide, whose limits were marked only by underlining that is lost in the text, so it was not cut off; The CK domain forms disulfide-linked homodimers; also called recombinant cyno CK domain; Cyno CK
T2 chain: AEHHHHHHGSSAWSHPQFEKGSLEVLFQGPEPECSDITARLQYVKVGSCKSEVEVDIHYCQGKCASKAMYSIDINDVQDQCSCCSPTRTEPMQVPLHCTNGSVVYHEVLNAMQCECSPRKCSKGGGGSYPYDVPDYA

T3: biotinylated human VWF cysteine knot (CK) domain construct (human, biotin on the in vitro biotinylation tag (residue not stated); one N-glycan)
T3 construct: Disulfide-linked homodimer; also called biotinylated human VWF CK domain; human VWF CK domain construct
T3 chain: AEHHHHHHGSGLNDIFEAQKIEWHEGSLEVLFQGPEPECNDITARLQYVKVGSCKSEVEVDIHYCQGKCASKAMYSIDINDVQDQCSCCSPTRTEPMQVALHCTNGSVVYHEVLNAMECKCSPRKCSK


What was measured:
VWF in human plasma [1] = target: T4, VWF in human plasma (human, UniProt P04275 764-2813); experiment: collagen type III binding ELISA; human plasma (5 donors) 17 h 37 °C with 600 nM antibody; VWF bound to collagen relative to untreated plasma; ligand collagen type III
T4 construct: Endogenous VWF in donor plasma, not purified; multimeric; also called VWF in plasma; VWF in platelet rich plasma
Method: Following incubation, collagen binding was determined relative to untreated plasma.

VWF in human plasma [2] = target: T4, VWF in human plasma; experiment: flow cytometry, FITC anti-VWF on platelets; human PRP (2 donors), 0.5 mg/ml ristocetin, 600 nM antibody; relative to the same plasma without antibody; receptor platelet gp1b
Method: PRP was prepared by centrifuging the blood at 250 g for 15 min. […] Sample analysis was performed on a flow cytometer. Using forward (FSC) and sideward (SSC) scatter pattern, a gate was placed on the platelets.

[3] = target: T1, His-StrepTagII-HRV3C-human VWF-CK-HA-tag; experiment: solution-phase equilibrium binding, free antibody by ELISA; apparent Kd; pH 5.5; mean ± SD, n=2
Method: (§1) Following incubation for 30 min at room temperature to establish equilibrium, unbound antibody was quantified by ELISA using the immobilized human CK domain for capture and HRP-conjugated goat anti-human IgG Fc antibody for detection.
(§2) Following a single wash of the plate with 200 μL of wash buffer (TBS containing 0.05% (v/v) Tween-20 and 5 mM CaCl₂), the plate was blocked by incubation with 200 μL blocking buffer (TBS containing 5 mM CaCl₂ and 1% (w/w) BSA) for 1 hour at room temperature. […] Incubation lasted 3 min and was followed by 5-min incubation with 100 μL HRP-conjugated goat anti-human IgG Fc antibody for detection (1 mg/mL stock diluted 1:20,000 in blocking buffer). Before and after addition of a detection antibody, the plate was washed 5 times with 200 μL wash buffer. A chromogenic horseradish peroxidase (HRP) substrate (100 μL) was then added and following color development for 3 min, 100 μL ELISA stop solution were added to quench the reaction. Absorbance was measured at 450 nm with subtraction of the absorbance at 620 nm.
(§3) The standard curve prepared with free antibody was fitted to a Sigmoidal four-parameter logistic (4PL) model.

[4] = target: T2, His-StrepTagII-HRV3C-cyno VWF-CK-HA-tag; experiment: as above
Method: as §1, §2, §3

human plasma-derived VWF = target: T5, human plasma-derived VWF (human, UniProt P04275 764-2813); experiment: solution-phase equilibrium binding, free antibody by ELISA; apparent Kd; pH 7.4; mean ± SD, n=2
T5 construct: multimeric; also called pd-VWF; Human VWF
Method: as §1, §2, §3

[5] = target: T1, His-StrepTagII-HRV3C-human VWF-CK-HA-tag; experiment: as above
Method: as §1, §2, §3

[6] = target: T2, His-StrepTagII-HRV3C-cyno VWF-CK-HA-tag; experiment: as above
Method: as §1, §2, §3

VWF in human plasma [7] = target: T4, VWF in human plasma; experiment: VWF:FVIIIB enzyme immunoassay; human plasma (5 donors) 17 h 37 °C with 600 nM antibody; FVIII bound to captured VWF relative to untreated plasma; ligand FVIII
VWF in human plasma [8] = target: T4, VWF in human plasma; experiment: VWF:FVIIIB enzyme immunoassay; human plasma (5 donors) 17 h 37 °C with 200 nM antibody; FVIII bound to captured VWF relative to untreated plasma; ligand FVIII
[9] = target: T3, biotinylated human VWF cysteine knot …; experiment: SPR, scFv captured on anti-SV5, pH 7.4; apparent Kd
From the text: Briefly, a sensor chip was activated and coupled with an anti-SV5 mouse monoclonal antibody using amine coupling. The soluble scFvs in crude yeast supernatants were printed on the anti-SV5 lawn. […] From the measured association (kₒₙ) and dissociation (koff) rate constants, an apparent equilibrium dissociation constant (Kd=koff/kₒₙ) was estimated. Due to the dimeric state of the CK construct and consequent possibility for simultaneous binding of captured scFv to both monomers in the CK dimer, the SPR setup was expected to overestimate the binding affinity.

| Binder | Collagen binding (% control) (VWF in human plasma [1]) | Platelet binding (% control) (VWF in human plasma [2]) | Kd [3] [nM] | Kd [4] [nM] | Kd (human plasma-derived VWF) [nM] | Kd [5] [nM] | Kd [6] [nM] | VWF:FVIII level (% of control) (VWF in human plasma [7]) | VWF:FVIII level (% of control) (VWF in human plasma [8]) | Kd [9] [nM] |
| --- | --- | --- | --- | --- | --- | --- | --- | --- | --- | --- |
| Lib1_P1_A6 OA (antibody, human IgG4 S228P, kappa, F234A L235A, also called monovalent (one-arm) Lib1_P1_A6) heavy: QVQLVQSGAEVKKPGASVKVSCKVSGSTFSNYAIHWVRQAPGKGLEWMGGIVPLSGTAIYAQKFQGRVTMTEDTSTDTAYMELSSLKSEDTAVYYCARDQGESSGWYAIYYGMDVWGQGTTVTVSSASTKGPSVFPLAPCSRSTSESTAALGCLVKDYFPEPVTVSWNSGALTSGVHTFPAVLQSSGLYSLSSVVTVPSSSLGTKTYTCNVDHKPSNTKVDKRVESKYGPPCPPCPAPEAAGGPSVFLFPPKPKDTLMISRTPEVTCVVVDVSQEDPEVQFNWYVDGVEVHNAKTKPREEQFNSTYRVVSVLTVLHQDWLNGKEYKCKVSNKGLPSSIEKTISKAKGQPREPQVYTLPPSQEEMTKNQVSLSCAVKGFYPSDIAVEWESNGQPENNYKTTPPVLDSDGSFFLVSRLTVDKSRWQEGNVFSCSVMHEALHNHYTQKSLSLSLG ESKYGPPCPPCPAPEAAGGPSVFLFPPKPKDTLMISRTPEVTCVVVDVSQEDPEVQFNWYVDGVEVHNAKTKPREEQFNSTYRVVSVLTVLHQDWLNGKEYKCKVSNKGLPSSIEKTISKAKGQPREPQVYTLPPSQEEMTKNQVSLWCLVKGFYPSDIAVEWESNGQPENNYKTTPPVLDSDGSFFLYSRLTVDKSRWQEGNVFSCSVMHEALHNHYTQKSLSLSLG light: DIQMTQSPSSVSASVGDRVTITCRASQGIGTWLAWYQQKPGKAPKLLIYGSSSRASGVPSRFSGSGSGTDFTLTISSLQPEDFANYYCQQSYGKPTFGGGTKVEIKRTVAAPSVFIFPPSDEQLKSGTASVVCLLNNFYPREAKVQWKVDNALQSGNSQESVTEQDSKDSTYSLSSTLTLSKADYEKHKVYACEVTHQGLSSPVTKSFNRGEC | 103 | 69.2 | 8.2 | 13 | 2.7 | 2.7 | 3.4 | 88.6 % of control | 89.7 % of control |  |
| 17561_Lib6_scFv (scFv, not shown: small tags and cut ends) scFv: EVQLVQSGAEVKKPGASVKVSCKASGYTFTDLPISWVRQAPGQGLEWMGWINPYTGDTNYAQKLQGRGTMTTDPSTSTAYMELRSLRSDDTAVYYCARDGVILGYYYYYGMDVWGQGTTVTVSSSGGSTITSYNVYYTKLSSSGTESALTQPASVSGSPGQSITISCTGTDLGSKSVSWYQQHPGKAPKLMIYDNFNRPSGVSNRFSGSKSGNTASLTISGLQAEDEADYYCSSRTVSGTYVFGGGTKLTVL |  |  |  |  |  |  |  |  |  | 10 |

Other lines, results leading:

| Collagen binding (% control) (VWF in human plasma [1]) | Platelet binding (% control) (VWF in human plasma [2]) | Kd [3] [nM] | Kd [4] [nM] | Kd (human plasma-derived VWF) [nM] | Kd [5] [nM] | Kd [6] [nM] | VWF:FVIII level (% of control) (VWF in human plasma [7]) | VWF:FVIII level (% of control) (VWF in human plasma [8]) | Kd [9] [nM] | Binder |
| --- | --- | --- | --- | --- | --- | --- | --- | --- | --- | --- |
| 106 | 89.7 | 17.9 | 26.4 | 5.7 | 5.3 | 10.2 | 93.9 % of control | 91.1 % of control |  | Lib1_P1_A9 OA (antibody, human IgG4 S228P, kappa, F234A L235A, also called monovalent (one-arm) Lib1_P1_A9) heavy: QVQLVQSGAEVKKPGASVKVSCKVSGDTLSSYGIHWVRQAPGKGLEWMGGSIPSFGTAIYAQKFQGRVTMTEDTSTDTAYMELSSLKSEDTAVYYCTSEGPWLPFFSFDYWGQGTLVTVSSASTKGPSVFPLAPCSRSTSESTAALGCLVKDYFPEPVTVSWNSGALTSGVHTFPAVLQSSGLYSLSSVVTVPSSSLGTKTYTCNVDHKPSNTKVDKRVESKYGPPCPPCPAPEAAGGPSVFLFPPKPKDTLMISRTPEVTCVVVDVSQEDPEVQFNWYVDGVEVHNAKTKPREEQFNSTYRVVSVLTVLHQDWLNGKEYKCKVSNKGLPSSIEKTISKAKGQPREPQVYTLPPSQEEMTKNQVSLSCAVKGFYPSDIAVEWESNGQPENNYKTTPPVLDSDGSFFLVSRLTVDKSRWQEGNVFSCSVMHEALHNHYTQKSLSLSLG ESKYGPPCPPCPAPEAAGGPSVFLFPPKPKDTLMISRTPEVTCVVVDVSQEDPEVQFNWYVDGVEVHNAKTKPREEQFNSTYRVVSVLTVLHQDWLNGKEYKCKVSNKGLPSSIEKTISKAKGQPREPQVYTLPPSQEEMTKNQVSLWCLVKGFYPSDIAVEWESNGQPENNYKTTPPVLDSDGSFFLYSRLTVDKSRWQEGNVFSCSVMHEALHNHYTQKSLSLSLG light: DIQMTQSPSSVSASVGDRVTITCRASQGISRNLAWYQQKPGKAPKLLIYKASSLASGVPSRFSGSGSGTDFTLTISSLQPEDFANYYCQQSFSTPVTFGGGTKVEIKRTVAAPSVFIFPPSDEQLKSGTASVVCLLNNFYPREAKVQWKVDNALQSGNSQESVTEQDSKDSTYSLSSTLTLSKADYEKHKVYACEVTHQGLSSPVTKSFNRGEC |
|  |  |  |  |  |  |  |  |  | 0.05 | Lib1_P1_A9_scFv (scFv, not shown: small tags and cut ends, soluble scFv, VH-linker-VL, expressed in S. cerevisiae (applies to all 63 scFvs)) scFv: QVQLVQSGAEVKKPGASVKVSCKVSGDTLSSYGIHWVRQAPGKGLEWMGGSIPSFGTAIYAQKFQGRVTMTEDTSTDTAYMELSSLKSEDTAVYYCTSEGPWLPFFSFDYWGQGTLVTVSSSGGSTITSYNVYYTKLSSSGTDIQMTQSPSSVSASVGDRVTITCRASQGISRNLAWYQQKPGKAPKLLIYKASSLASGVPSRFSGSGSGTDFTLTISSLQPEDFANYYCQQSFSTPVTFGGGTKVEIK |
